{"source": "paper PMC11838195", "binders": {"B1": {"name": "60 bp dsDNA (dsDNA)", "DNA 1": "ATTCTTCCGAGTTTTTTCCTCATCTCACTTCCAATACAGAAAGCTTGCCCCGCCCTTCCT", "DNA 2": "AGGAAGGGCGGGGCAAGCTTTCTGTATTGGAAGTGAGATGAGGAAAAAACTCGGAAGAAT"}}, "biological_target": "T1, MBP-METTL7A WT (human, UniProt Q9H8H3 1-244)", "T1 sequence": "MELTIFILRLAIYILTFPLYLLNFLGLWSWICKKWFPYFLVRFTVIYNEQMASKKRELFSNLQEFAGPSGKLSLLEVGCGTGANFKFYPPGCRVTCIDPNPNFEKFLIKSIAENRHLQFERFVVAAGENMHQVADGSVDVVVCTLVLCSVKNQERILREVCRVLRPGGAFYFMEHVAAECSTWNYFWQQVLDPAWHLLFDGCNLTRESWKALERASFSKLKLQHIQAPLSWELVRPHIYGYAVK", "assay": "EMSA", "data": [{"binder": "B1", "values": [{"measurement": "binding result", "value": "binds"}]}]}
